{
  "source": "patent US7871610B2",
  "about": "“Antibodies to Tie1 ectodomain” (Dyax Corp., priority 2003, dated 2011)",
  "molecules": {"B1": {"name": "E3: human anti-Tie1 antibody from Fab phage library; HC SEQ ID NO:114, LC SEQ ID NO:116 (antibody, V domains shown)", "VH": "EVQLLESGGGLVQPGGSLRLSCAASGFTFSMYGMVWVRQAPGKGLEWVSVISPSGGNTGYADSVKGRFTISRDNSKNTLYLQVNSLRAEDTAVYYCARAPRGYSYGYYYWGQGTLVTVSSASTKGPSVFPLAPSSKSTSGG", "VL": "DIQMTQSPLSLSASVGDRVTITCRASQGIGHYLAWYQQKPGKVPKLLIYTASTLQSGVPSRFSGSGSGTDFTLTINSLQPEDVATYYCQQFNSYPHTFGQGTRLDIK", "modifications": "Synthetically generated peptide"}},
  "key": {"mouse Tie1": {"target": "T1, mouse Tie1 (Mus musculus, UniProt Q06806)", "T1 construct": "host or cells: mouse endothelial cell lines MS1, Le-2, Bend3, SVEC", "T1 sequence (Q06806 23-1134)": "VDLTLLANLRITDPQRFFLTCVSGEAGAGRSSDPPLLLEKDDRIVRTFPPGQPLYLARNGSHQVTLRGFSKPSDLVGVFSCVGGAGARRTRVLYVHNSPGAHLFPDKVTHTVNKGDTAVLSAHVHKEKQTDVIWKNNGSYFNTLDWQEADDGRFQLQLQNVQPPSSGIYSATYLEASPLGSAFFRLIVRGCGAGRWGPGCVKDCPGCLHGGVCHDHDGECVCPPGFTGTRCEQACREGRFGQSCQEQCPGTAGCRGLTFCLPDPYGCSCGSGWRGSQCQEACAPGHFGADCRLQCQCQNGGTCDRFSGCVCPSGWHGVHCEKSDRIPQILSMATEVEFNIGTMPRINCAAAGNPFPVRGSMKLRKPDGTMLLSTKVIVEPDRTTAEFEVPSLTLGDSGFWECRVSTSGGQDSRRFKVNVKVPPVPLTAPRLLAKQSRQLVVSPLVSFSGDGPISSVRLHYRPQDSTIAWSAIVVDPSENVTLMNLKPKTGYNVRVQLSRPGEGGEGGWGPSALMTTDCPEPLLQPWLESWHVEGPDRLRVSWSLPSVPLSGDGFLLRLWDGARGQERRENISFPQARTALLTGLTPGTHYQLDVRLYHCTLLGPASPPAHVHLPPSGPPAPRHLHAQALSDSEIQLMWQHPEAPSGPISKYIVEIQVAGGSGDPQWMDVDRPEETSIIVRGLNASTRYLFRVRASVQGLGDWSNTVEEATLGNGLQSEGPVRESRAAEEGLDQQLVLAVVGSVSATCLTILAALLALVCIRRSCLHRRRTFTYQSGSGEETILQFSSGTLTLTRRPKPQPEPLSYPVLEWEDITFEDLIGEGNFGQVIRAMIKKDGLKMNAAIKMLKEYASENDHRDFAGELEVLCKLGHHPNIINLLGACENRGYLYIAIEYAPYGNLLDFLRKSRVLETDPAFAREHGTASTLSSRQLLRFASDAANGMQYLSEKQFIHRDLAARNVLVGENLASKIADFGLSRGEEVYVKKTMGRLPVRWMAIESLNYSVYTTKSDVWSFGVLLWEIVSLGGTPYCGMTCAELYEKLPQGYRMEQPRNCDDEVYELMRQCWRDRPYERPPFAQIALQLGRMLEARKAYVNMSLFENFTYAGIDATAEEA", "assay": "Flow cytometry binding to mouse endothelial cell lines", "settings": "MS1, Le-2, Bend3, SVEC and Tie-1 transfected Le-2 cells; biotinylated antibody", "procedure": "Specific binding of the Tie-1 antibodies and of control Mabs to mouse endothelial cells was measured by flow cytometry analysis (FACSscan, Becton Dickinson, Oxnard, Epics, Coulter). Mouse endothelial cell lines MS1, Le-2, Bend3, SVEC (ATCC, Rockville) and Tie-1 transfected Le-2 cells were stained. Cell staining was modified from existing protocols. About 200,000 cells were used in each experiment: after trypsinization, cells were washed one time in PBS and resuspended PBS, 10% Heat inactivated human serum (incubation buffer). To test specificity, antibodies were incubated at different dilutions for 1 h at room temperature. Cells were spun down by centrifugation for 3 min at 611 g. Between incubations cells were washed twice with PBS. […] After the final incubation step bound antibodies were detected by means of flow cytometry on a FACSCan and Epics Altra (Becton Dickinson, Oxnard, Coulter) and results analyzed.\nIntracellular Tie-1 was measured as described above, except for the addition of Saponin to the incubation buffer to a final concentration of 0.1% during incubations. […] The binding pattern in mouse cell lines detected by flow cytometry is different from the binding pattern in HUVEC in that in mouse cells there is a greater cell surface staining than that compared to primary human endothelial cell lines."}, "Tie1": {"target": "Tie1 (Homo sapiens, UniProt P35590)", "sequence (P35590 22-1138)": "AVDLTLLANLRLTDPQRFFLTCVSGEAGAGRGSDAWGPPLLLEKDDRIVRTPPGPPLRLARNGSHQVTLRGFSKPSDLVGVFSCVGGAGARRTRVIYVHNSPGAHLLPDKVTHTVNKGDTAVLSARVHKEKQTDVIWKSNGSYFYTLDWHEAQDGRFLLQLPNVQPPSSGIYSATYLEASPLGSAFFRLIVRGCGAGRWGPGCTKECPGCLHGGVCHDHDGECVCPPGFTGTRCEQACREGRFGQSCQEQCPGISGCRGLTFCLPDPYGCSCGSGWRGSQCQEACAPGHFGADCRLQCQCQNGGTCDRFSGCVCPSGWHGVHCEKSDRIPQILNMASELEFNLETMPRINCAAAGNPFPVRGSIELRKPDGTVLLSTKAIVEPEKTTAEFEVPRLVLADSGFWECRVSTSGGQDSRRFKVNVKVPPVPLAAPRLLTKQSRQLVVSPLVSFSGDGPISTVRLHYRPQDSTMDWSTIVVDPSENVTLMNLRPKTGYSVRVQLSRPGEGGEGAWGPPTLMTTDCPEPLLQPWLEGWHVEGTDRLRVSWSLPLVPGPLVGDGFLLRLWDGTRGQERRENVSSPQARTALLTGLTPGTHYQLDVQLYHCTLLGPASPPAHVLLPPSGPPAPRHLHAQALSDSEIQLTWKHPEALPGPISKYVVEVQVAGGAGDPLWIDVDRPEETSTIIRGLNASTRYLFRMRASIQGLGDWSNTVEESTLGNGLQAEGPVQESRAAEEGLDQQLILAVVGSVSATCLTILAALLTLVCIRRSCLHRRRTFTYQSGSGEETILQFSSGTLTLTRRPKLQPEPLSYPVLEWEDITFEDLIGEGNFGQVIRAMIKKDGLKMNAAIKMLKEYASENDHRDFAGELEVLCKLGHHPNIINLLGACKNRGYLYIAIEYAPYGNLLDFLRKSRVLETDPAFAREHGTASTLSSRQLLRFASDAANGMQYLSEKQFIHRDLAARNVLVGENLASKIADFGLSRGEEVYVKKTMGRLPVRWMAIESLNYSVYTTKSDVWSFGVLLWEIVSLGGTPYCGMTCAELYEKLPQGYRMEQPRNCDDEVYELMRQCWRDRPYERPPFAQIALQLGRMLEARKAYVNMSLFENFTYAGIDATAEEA", "assay": "Immunoprecipitation from HUVEC lysates", "type": "binding", "set-up": "endogenous in cells; host or cells: HUVEC", "settings": "5 μg/ml antibody", "procedure": "The conclusion from this study was that platelets represent a large pool of Tie-1 immunoreactivity which could present a problem for development of Tie1 as a therapeutic target. […] Both, activated and inactivated platelets were tested. Anti-Tie-1 antibodies B2, D11, E3, the goat polyclonal AF619 (R&D) and negative control antibodies anti-FITC and anti-Streptavidin were used. HUVECS were retrieved from culture dishes by trypsinization and platelets were prepared with the platelet GelSep kit (Biocytex, Marseille, France) kit according to the guidelines of the manufacturer. Per immunoprecipitation experiment 3-5e10^6 and 3e10^8 cells platelets were used for each antibody tested. Platelets and cells were washed with PBS and spun down at 1400 rpm for 4 minutes and supernatant was removed. Then cells were lysed in 1 ml lysis buffer containing 50 mM Tris HCL pH 7.5, 150 mM NaCl, 0.5% Deoxycholic acid (DOC) and 0.5% NP-40 for 5 minutes. The lysed cells were spin down for 10 minutes at 14.000 rpm and 5 μg/ml antibody was added to the supernatant and incubated at 4° C. on a rotator. 100 μl/sample protein A beads (Uppsala, Sweden) were washed 3 times with lysis buffer (centrifugation speed: 1.5 seconds, 2000 rpm) then cell lysates incubated with antibody were added for 30 minutes 4° C. […] In Western blotting Tie-1 was detected with the polyclonal goat anti-Tie-1 antibody."}, "[1]": {"target": "T2, recombinant human Tie1-Fc (Homo sapiens, UniProt P35590)", "T2 construct": "selected against the Tie1 extracellular domain fused to human Fc or to a histidine purification tag", "T2 sequence (P35590 22-759 limits assumed)": "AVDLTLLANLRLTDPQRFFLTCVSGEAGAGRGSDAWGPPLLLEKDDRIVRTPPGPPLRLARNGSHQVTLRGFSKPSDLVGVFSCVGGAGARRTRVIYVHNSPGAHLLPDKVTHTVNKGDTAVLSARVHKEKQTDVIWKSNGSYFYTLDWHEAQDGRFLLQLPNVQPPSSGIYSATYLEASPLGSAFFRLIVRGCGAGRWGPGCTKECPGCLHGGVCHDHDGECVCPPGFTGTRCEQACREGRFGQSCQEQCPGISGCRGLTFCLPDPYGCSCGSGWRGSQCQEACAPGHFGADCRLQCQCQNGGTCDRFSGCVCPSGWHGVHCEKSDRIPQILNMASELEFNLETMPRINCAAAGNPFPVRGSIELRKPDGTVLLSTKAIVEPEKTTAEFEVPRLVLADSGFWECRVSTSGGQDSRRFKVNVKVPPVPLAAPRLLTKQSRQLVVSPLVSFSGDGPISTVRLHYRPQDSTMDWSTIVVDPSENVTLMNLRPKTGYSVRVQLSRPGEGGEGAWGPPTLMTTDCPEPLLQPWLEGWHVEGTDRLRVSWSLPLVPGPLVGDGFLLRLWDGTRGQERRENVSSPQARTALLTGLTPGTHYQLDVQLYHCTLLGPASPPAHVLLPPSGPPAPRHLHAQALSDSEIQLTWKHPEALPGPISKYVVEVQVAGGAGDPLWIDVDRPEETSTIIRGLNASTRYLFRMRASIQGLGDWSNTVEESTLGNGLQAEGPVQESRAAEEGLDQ", "assay": "BIAcore, coated E3 IgGs with recombinant human Tie-1 Fc", "type": "binding", "settings": "IgG, human Tie1 Fc", "procedure": "The germlined E3 IgG1 stock solution 0.63 mg/ml was diluted 1/50 in a buffer of pH4.5 and the parental E3 IgG1 stock solution 0.56 mg/ml (2143-001) was diluted 1/50 in a buffer of pH 4.5. The IgG were directly coated onto a CM5 chip. The surface of the chips was activated with a 7 minute pulse of 0.05M NHS/0.2M EDC and the IgG was flowed over until 780RU germlined E3-IgG and 728 non germlined E3 IgG was coated onto the surface. All flow cells were subsequently deactivated with a 7 minute pulse of 1M ethanolamine hydrochloride pH 8.5. All analysis was performed in HBS buffer. Purified recombinant human Tie-1 Fc was diluted 1/28.7 in HBS to obtain a 400 nM stock solution. Serial dilutions were made to obtain 200 nM, 100 nM, 50 nM and 25 nM Tie-1 Fc stocks. For analysis of the association phase samples were injected at 30 μl/min for 8.3 minutes using kinject program. This was followed by a 40 minutes dissociation phase. Any antigen remaining associated to the surface was stripped from the IgG surface at a flow of 50 μl/min with two injections of 10 mM glycine pH 1.5 for 30 secods. All samples were run and analyzed in duplicate\nSensorgrams were analyzed using the simultaneous ka/kd fitting program with 1:1 model in the BIAEVALUATION™ software 3.1."}},
  "data": [
    {"molecule": "B1", "values": [
      {"measurement": "binding to mouse endothelial cell lines", "setting": "mouse Tie1", "value": "binds to mouse endothelial cell lines"},
      {"measurement": "immunoprecipitation of Tie-1 from HUVEC", "setting": "Tie1", "value": "able to immune precipitate Tie-1 in HUVEC"},
      {"measurement": "effect of germlining on binding activity", "setting": "[1]", "value": "minimal impact on the binding activity"}
    ]}
  ]
}
